FRET signal (donor dequenching) data for one substance are collected here from PMC3000793.

The assay concerns the target ASIC3-YFP (UniProt O35240). The assay is described as follows: FRET or BRET.
Chain of UniProt O35240 (O35240 whole entry): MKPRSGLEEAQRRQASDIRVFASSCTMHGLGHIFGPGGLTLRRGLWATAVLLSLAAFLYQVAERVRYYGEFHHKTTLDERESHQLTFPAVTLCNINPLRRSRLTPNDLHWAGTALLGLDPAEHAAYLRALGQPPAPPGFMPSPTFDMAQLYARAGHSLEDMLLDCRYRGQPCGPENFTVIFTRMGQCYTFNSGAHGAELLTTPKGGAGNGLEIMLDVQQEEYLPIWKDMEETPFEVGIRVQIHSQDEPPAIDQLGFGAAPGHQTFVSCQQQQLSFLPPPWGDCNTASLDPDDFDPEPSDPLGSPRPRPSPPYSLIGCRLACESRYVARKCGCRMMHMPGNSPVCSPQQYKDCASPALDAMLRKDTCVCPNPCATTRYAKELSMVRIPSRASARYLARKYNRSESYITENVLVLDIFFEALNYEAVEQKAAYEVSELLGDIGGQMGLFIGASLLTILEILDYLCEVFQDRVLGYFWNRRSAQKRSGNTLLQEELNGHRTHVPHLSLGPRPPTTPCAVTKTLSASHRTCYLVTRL

For the substance “P2X5-CFP (from UniProt P51578 1-455) (receptor)”, the FRET signal (donor dequenching) was determined as 20%.
